Patent US20260265321A1, “PEPTIDE AND POLYPEPTIDE INHIBITING THE NF-KB SIGNALING PATHWAY” (Centre National de la Recherche Scientifique, priority 2023, published 2026)
Changes are numbered by the printed parent chain. Blank lines part the entries; values can stand above or below the binder they belong to.

How the values were obtained:
[1] = molecular target: T1, IKKα(10-667) S176E/S180E homodimer, 6×His tag removed (human, UniProt O15111 10-667); experiment: ITC, given as a lower bound
T1 construct: also called purified IKKα
T1 sequence (looked up): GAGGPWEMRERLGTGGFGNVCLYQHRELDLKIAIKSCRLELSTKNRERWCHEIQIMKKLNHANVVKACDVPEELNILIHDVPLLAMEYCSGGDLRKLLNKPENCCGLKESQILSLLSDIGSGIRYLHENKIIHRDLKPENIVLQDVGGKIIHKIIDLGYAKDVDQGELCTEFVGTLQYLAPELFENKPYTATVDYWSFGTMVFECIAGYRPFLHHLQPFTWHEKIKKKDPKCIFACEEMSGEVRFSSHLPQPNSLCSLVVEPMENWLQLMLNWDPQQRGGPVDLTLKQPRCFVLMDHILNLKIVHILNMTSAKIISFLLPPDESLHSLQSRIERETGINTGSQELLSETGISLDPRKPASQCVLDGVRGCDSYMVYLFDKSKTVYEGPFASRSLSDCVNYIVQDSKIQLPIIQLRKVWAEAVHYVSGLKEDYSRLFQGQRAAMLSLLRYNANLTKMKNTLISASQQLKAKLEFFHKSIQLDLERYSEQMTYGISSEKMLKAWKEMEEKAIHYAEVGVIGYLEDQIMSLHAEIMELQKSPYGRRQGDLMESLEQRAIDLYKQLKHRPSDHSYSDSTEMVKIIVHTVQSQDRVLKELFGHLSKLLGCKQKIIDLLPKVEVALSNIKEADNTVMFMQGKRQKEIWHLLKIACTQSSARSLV

[2] = molecular target: T1, IKKα(10-667) S176E/S180E homodimer, …; experiment: ITC, 25 °C, 1:1 model; values called estimates
Procedure: (§1) All experiments were performed in ITC buffer (20 mM HEPES pH 8.0, 150 mM NaCl, 1 mM TCEP) unless otherwise stated. […] Just before the ITC experiments, IKKα or IKKβ samples were concentrated, incubated at room temperature for 30 minutes and centrifuged at 11000 g to remove eventual precipitate. The final concentrations of IKKα and IKKβ in the sample cell varied between 22 and 50 μM depending on the measurement. […] The concentration of peptides in the syringe varied between 220 and 975 μM depending on the measurement.
(§2) All ITC experiments were performed at 25° C. The data were fitted to a 1:1 binding model. […] All data were processed using NITPIC software and global fitting of two datasets was carried out using SEDPHAD.

[3] = molecular target: T1, IKKα(10-667) S176E/S180E homodimer, …; experiment: ITC, 25 °C, 1:1 model; values called estimates; table value; footnote calls it an estimate
Procedure: as §1, §2

[4] = molecular target: T2, G1-IKKβ L654D/W655D (GPCA construct) (human, UniProt O14920 1-756); experiment: GPCA in HEK293T cells
T2 construct: not shown: Gluc1 fragment of Gaussia princeps luciferase and flexible 20 amino acid linker, N-terminal
T2 sequence (looked up): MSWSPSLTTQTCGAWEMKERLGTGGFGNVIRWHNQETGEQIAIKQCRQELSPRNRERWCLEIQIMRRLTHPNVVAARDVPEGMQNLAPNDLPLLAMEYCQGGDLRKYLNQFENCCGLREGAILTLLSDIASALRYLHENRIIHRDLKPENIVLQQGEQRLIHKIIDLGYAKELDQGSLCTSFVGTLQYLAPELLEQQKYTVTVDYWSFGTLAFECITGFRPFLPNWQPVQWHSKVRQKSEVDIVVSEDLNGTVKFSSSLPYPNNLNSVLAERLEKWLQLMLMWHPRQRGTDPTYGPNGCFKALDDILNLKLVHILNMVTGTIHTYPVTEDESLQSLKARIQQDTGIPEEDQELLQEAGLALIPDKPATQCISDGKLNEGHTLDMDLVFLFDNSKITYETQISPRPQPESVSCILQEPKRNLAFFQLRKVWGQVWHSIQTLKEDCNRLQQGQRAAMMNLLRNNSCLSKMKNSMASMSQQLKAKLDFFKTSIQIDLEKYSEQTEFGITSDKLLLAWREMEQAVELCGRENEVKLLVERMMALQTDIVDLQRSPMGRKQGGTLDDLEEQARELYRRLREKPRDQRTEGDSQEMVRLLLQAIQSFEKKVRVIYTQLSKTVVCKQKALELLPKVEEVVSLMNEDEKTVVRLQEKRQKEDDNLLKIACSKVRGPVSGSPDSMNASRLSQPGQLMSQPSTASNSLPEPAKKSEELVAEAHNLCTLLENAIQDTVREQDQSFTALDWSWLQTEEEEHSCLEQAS
Procedure: (§3) HEK293T cells were transfected using the reverse transfection method. Transfection mixes containing 100 ng of pSPICA-N2 and 100 ng of pSPICA-N1 plasmids expressing test proteins plus JetPEI® (Polyplus transfection) were dispensed in white 96-well plates. HEK293T cells were then seeded on the DNA mixes at a concentration of 4.2×10^4 cells per well. 48 hours after transfection, cells were washed with 50 μl of PBS and lysed with 40 μl of Renilla lysis buffer (Promega, E2820) for 30 minutes with agitation. Gaussia princeps luciferase enzymatic activity was measured using a Berthold Centro LB960 luminometer by injecting 50 μl per well of luciferase substrate reagent (Promega, E2820) and counting luminescence for 10 seconds. Results are expressed as a fold change normalized over the sum of controls, specified herein as normalized luminescence ratio (NLR) 29. For a given protein pair A/B, NLR=(Gluc1-A+Gluc2-B)/[(Gluc1-A+Gluc2)+(Gluc1+Gluc2-B)]. All interactions were measured in three independent experiments, with each experiment being carried out in triplicate. The expression levels of Gluc1- and Gluc2-fused proteins were checked by Western blotting. 24 hours post-transfection, HEK293T cells were collected, lysed by incubation on ice and centrifuged. Aliquots of cleared supernatants were loaded onto an 10% SDS-PAGE gel.

[5] = molecular target: T3, G1-IKKα, full-length wt IKKα fused to the Gluc1 fragment (human, UniProt O15111 1-745); experiment: GPCA (Gaussia princeps protein complementation assay) in HEK293T cells, NLR, mean ± SD of triplicates
T3 construct: Expressed in HEK293T cells for GPCA; full-length; also called Gluc1-IKKα; not shown: Gluc1 fragment of Gaussia princeps luciferase and flexible 20 amino acid linker, N-terminal
T3 sequence (looked up): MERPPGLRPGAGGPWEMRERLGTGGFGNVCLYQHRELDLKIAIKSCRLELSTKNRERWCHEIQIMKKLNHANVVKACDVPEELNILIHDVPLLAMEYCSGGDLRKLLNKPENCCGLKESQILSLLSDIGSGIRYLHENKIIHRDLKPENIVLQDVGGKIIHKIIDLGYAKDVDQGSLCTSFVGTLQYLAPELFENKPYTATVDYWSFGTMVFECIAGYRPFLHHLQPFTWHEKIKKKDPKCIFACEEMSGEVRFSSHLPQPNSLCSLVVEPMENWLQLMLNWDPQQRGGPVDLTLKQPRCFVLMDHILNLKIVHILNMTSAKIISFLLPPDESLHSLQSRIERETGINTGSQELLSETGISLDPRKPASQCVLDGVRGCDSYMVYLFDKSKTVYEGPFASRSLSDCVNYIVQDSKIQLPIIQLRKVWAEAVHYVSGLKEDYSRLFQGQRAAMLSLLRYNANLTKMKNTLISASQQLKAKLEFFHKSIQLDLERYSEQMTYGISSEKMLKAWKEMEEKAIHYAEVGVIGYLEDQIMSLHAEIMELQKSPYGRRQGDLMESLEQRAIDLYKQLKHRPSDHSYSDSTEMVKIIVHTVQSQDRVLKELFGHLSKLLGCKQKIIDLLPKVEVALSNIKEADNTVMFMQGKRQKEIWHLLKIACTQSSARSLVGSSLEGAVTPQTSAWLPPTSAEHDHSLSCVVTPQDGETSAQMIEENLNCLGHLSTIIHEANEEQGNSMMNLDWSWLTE
Procedure: as §3

[6] = molecular target: T4, G1-IKKβ, full-length wt IKKβ fused to the Gluc1 fragment (human, UniProt O14920 1-756); experiment: as above
T4 construct: Expressed in HEK293T cells for GPCA; full-length; also called Gluc1-IKKβ; not shown: Gluc1 fragment of Gaussia princeps luciferase and flexible 20 amino acid linker, N-terminal
T4 sequence (looked up): T2 sequence (looked up) with D654L, D655W
Procedure: as §3

Kd [1]: > 90 µM
TΔS [2]: -1.2 kcal/mol
ΔG [2]: -5.5 kcal/mol
ΔH [2]: -6.7 kcal/mol
Kd [3]: ~90 µM
Binder: LSSANSLYDDIECFLMELEQPA [synthetic IRF7 pep]

binding result [4]: no binding
binding result [5]: binds
binding result [6]: binds
B1: G2-IκBα(73-317) (other, UniProt P25963 73-317, looked up)
chain: DGDSFLHLAIIHEEKALTMEVIRQVKGDLAFLNFQNNLQQTPLHLAVITNQPEIAEALLGAGCDPELRDFRGNTPLHLACEQGCLASVGVLTQSCTTPHLHSILKATNYNGHTCLHLASIHGYLGIVELLVSLGADVNAQEPCNGRTALHLAVDLQNPDLVSLLLKCGADVNRVTYQGYSPYQLTWGRPSTRIQQQLGQLTLENLQMLPESEDEESYDTESEFTEFTEDELPYDDCVFGGQRLTL
notes: range 73-317; Expressed in HEK293T cells for GPCA; also called N-terminal truncated IκBα (73-317) construct; not shown: Gluc2 fragment of Gaussia princeps luciferase and flexible 20 amino acid linker, N-terminal
